Data from patent publication US20160272683A1 (Novo Nordisk, published 2016).
Numbered stars: 1 amine (or outer) side, 2 acyl side, 3 side chain; on linkers, the order of the positions; unused ones are H or OH. Square brackets hold non-standard residues; d marks the D form. Side chains are listed from the residue outwards. * marks the point of attachment. C20 diacid = O=C(O)CCCCCCCCCCCCCCCCCCC(=O)*; γGlu = O=C(O)[C@H](CCC(=O)[*:2])N[*:1]

T1: human amylin receptor (human calcitonin receptor + human RAMP3) (human) (UniProt P30988)
T1 sequence (looked up) 1: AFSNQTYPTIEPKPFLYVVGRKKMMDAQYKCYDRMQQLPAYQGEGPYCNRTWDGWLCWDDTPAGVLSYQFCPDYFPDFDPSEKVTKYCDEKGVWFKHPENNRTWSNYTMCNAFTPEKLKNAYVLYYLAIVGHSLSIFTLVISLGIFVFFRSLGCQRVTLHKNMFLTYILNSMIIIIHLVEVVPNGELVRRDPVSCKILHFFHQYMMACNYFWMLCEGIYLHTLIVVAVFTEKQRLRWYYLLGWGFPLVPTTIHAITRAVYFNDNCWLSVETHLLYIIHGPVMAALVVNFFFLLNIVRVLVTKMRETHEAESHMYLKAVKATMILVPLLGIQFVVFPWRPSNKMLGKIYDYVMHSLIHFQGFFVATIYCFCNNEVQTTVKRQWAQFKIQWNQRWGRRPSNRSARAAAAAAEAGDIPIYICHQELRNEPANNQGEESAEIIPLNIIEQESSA
T1 sequence (looked up) 2: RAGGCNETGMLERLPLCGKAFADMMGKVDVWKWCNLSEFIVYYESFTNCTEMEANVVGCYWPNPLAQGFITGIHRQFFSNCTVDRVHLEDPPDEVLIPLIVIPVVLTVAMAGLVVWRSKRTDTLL


How the values were obtained:
[1] = target: rat calcitonin receptor (rat) (UniProt P32214); assay: SPA competition vs 125I-calcitonin, membranes with rat CTR (Assay VIII)
[2] = target: T1, human amylin receptor (human calcitonin receptor + human RAMP3) (human); assay: whole-cell competition vs 125I-rat amylin (Assay Va)
[3] = target: rat amylin receptor (rat calcitonin receptor with rat RAMP 3) (rat) (UniProt P32214); assay: SPA competition vs 125I-rat amylin, membranes with rat CTR + rat RAMP3 (Assay VI)

Chain of [N-terminal(C18 diacid-gGlu-2xOEG), des1, 4G, 9V, 15Q, 21Q, 23Y, 30S, 31G, 32T, 33Y]mimylin (peptide) (peptide): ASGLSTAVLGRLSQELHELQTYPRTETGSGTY

Molecule	IC50 [1]	IC50 [2]	IC50 [3]
{C20 diacid-γGlu}-ASELSTAALGRLSAELHELATYPRTETGSGAP-NH2 (SMILES CC(C)C[C@H](NC(=O)[C@H](C)NC(=O)[C@H](C)NC(=O)[C@@H](NC(=O)[C@H](CO)NC(=O)[C@H](CC(C)C)NC(=O)[C@H](CCC(=O)O)NC(=O)[C@H](CO)NC(=O)[C@H](C)NC(=O)CC[C@H](NC(=O)CCCCCCCCCCCCCCCCCCC(=O)O)C(=O)O)[C@@H](C)O)C(=O)NCC(=O)N[C@@H](CCCNC(=N)N)C(=O)N[C@@H](CC(C)C)C(=O)N[C@@H](CO)C(=O)N[C@@H](C)C(=O)N[C@@H](CCC(=O)O)C(=O)N[C@@H](CC(C)C)C(=O)N[C@@H](Cc1c[nH]cn1)C(=O)N[C@@H](CCC(=O)O)C(=O)N[C@@H](CC(C)C)C(=O)N[C@@H](C)C(=O)N[C@H](C(=O)N[C@@H](Cc1ccc(O)cc1)C(=O)N1CCC[C@H]1C(=O)N[C@@H](CCCNC(=N)N)C(=O)N[C@H](C(=O)N[C@@H](CCC(=O)O)C(=O)N[C@H](C(=O)NCC(=O)N[C@@H](CO)C(=O)NCC(=O)N[C@@H](C)C(=O)N1CCC[C@H]1C(N)=O)[C@@H](C)O)[C@@H](C)O)[C@@H](C)O) [[N-terminal(C20 diacid-gGlu), des1, 23Y, 30S, 31G, 32A]mimylin]	0.039 nM	2.02 nM	0.026 nM
Ac-ASELSTAALGRLSAK([γGlu-C20 diacid])LHELATLPRTETGSGSP-NH2 [[N-terminal(acetyl), des1, 16K(C20 diacid-gGlu), 30S, 31G]mimylin]	0.042 nM		0.115 nM
Ac-ASELSTAALGRLSAELHK([γGlu-C20 diacid])LATLPRTETGSGSP-NH2 [[N-terminal(acetyl), des1, 19K(C20 diacid-gGlu), 30S, 31G]mimylin]	0.071 nM		0.684 nM

Stronger by IC50 [1], values ahead:

IC50 [1]	IC50 [2]	IC50 [3]	Molecule
0.032 nM	0.801 nM	0.357 nM	[N-terminal(C18 diacid-gGlu-2xOEG), des1, 4G, 9V, 15Q, 21Q, 23Y, 30S, 31G, 32T, 33Y]mimylin (peptide)
0.017 nM		0.017 nM	{C20 diacid-γGlu}-ASELSTAALGRLS[dE]ELHELATLPRTETGSGSP-NH2 (SMILES CC(C)C[C@H](NC(=O)[C@H](C)NC(=O)[C@H](C)NC(=O)[C@@H](NC(=O)[C@H](CO)NC(=O)[C@H](CC(C)C)NC(=O)[C@H](CCC(=O)O)NC(=O)[C@H](CO)NC(=O)[C@H](C)NC(=O)CC[C@H](NC(=O)CCCCCCCCCCCCCCCCCCC(=O)O)C(=O)O)[C@@H](C)O)C(=O)NCC(=O)N[C@@H](CCCNC(=N)N)C(=O)N[C@@H](CC(C)C)C(=O)N[C@@H](CO)C(=O)N[C@H](CCC(=O)O)C(=O)N[C@@H](CCC(=O)O)C(=O)N[C@@H](CC(C)C)C(=O)N[C@@H](Cc1c[nH]cn1)C(=O)N[C@@H](CCC(=O)O)C(=O)N[C@@H](CC(C)C)C(=O)N[C@@H](C)C(=O)N[C@H](C(=O)N[C@@H](CC(C)C)C(=O)N1CCC[C@H]1C(=O)N[C@@H](CCCNC(=N)N)C(=O)N[C@H](C(=O)N[C@@H](CCC(=O)O)C(=O)N[C@H](C(=O)NCC(=O)N[C@@H](CO)C(=O)NCC(=O)N[C@@H](CO)C(=O)N1CCC[C@H]1C(N)=O)[C@@H](C)O)[C@@H](C)O)[C@@H](C)O) [[N-terminal(C20 diacid-gGlu), des1, 15e, 30S, 31G]mimylin]
0.01 nM		0.046 nM	Ac-ASK([γGlu-C20 diacid])LSTAALGRLSAELHELATLPRTETGSGSP-NH2 [[N-terminal(acetyl), des1, 4K(C20 diacid-gGlu), 30S, 31G]mimylin]
